Measurements from ChEMBL document CHEMBL1135342, “Synthesis and evaluation of thymidine-5'-O-monophosphate analogues as inhibitors of Mycobacterium tuberculosis thymidylate kinase” (Bioorg Med Chem Lett, 2002).

Columns and labels:
[1] = substrate: Cc1cn(-c2ccc(COP(=O)(O)O)o2)c(=O)[nH]c1=O; assay: (§1) Compound was tested for binding affinity against Mycobacterium tuberculosis thymidine monophosphate kinase
[2] = substrate: Cc1cn([C@H]2C[C@H](F)[C@@H](COP(=O)(O)O)O2)c(=O)[nH]c1=O; assay: as §1
[3] = substrate: Cc1cn([C@H]2C[C@H](O)[C@@H](COP(=O)(O)O)O2)c(=O)[nH]c1=O; assay: as §1
[4] = substrate: O=c1[nH]c(=O)n([C@H]2C[C@H](O)[C@@H](COP(=O)(O)O)O2)cc1Br; assay: as §1
[5] = substrate: O=c1[nH]c(=O)n([C@H]2C[C@H](O)[C@@H](COP(=O)(O)O)O2)cc1F; assay: as §1
[6] = substrate: O=c1[nH]c(=O)n([C@H]2C[C@H](O)[C@@H](COP(=O)(O)O)O2)cc1I; assay: as §1
[7] = substrate: O=c1ccn([C@H]2C[C@H](O)[C@@H](COP(=O)(O)O)O2)c(=O)[nH]1; assay: as §1

B1: Thymidylate kinase (Mycobacterium tuberculosis), P9WKE1 (protein)
chain: MLIAIEGVDGAGKRTLVEKLSGAFRAAGRSVATLAFPRYGQSVAADIAAEALHGEHGDLASSVYAMATLFALDRAGAVHTIQGLCRGYDVVILDRYVASNAAYSAARLHENAAGKAAAWVQRIEFARLGLPKPDWQVLLAVSAELAGERSRGRAQRDPGRARDNYERDAELQQRTGAVYAELAAQGWGGRWLVVGADVDPGRLAATLAPPDVPS
Km [1]: 140 µM
Km [2]: 30 µM
Km [3]: 4.5 µM
Km [4]: 33 µM
Km [5]: 420 µM
Km [6]: 140 µM
Km [7]: 2100 µM
